Measured values as given in patent US20220073621A1 (EUCURE BEIJING BIOPHARMA, published 2022).

How the values were obtained:
Mouse PD-L1 on CHO cells [1] = target: T1, Mouse PD-L1 on CHO cells (mouse, UniProt Q9EP73 19-290); test: flow cytometry, CHO-mPD-L1 cells, Anti-mouse-IgGFc-FITC, antibody 1 µg/ml
T1 construct: Expressed in CHO cells for the cross-reactivity test; also called mPD-L1; murine PD-L1 protein
From the text: (§1) The rhesus monkey PD-L1 protein coding sequence (rmPD-L1, SEQ ID NO: 54), the mouse PD-L1 protein coding sequence (mPD-L1, SEQ ID NO: 53), and the human-mouse chimeric PD-L1 (the extracellular region of the mouse PD-L1 protein was replaced with human protein fragments) protein coding sequence (chiPD-L1, SEQ ID NO: 55) were transferred into CHO cells for protein expression and used for the antibody cross-reactivity testing.
(§2) The test was detailed as follows: a 96-well cell culture plate was used, and the above-mentioned CHO cells expressing different PD-L1 proteins (25 μl, 2×10⁴ cells/well) was added to each well, and then 25 μl of the ascites purified anti-PD-L1 antibodies (1 μg/ml) were added to each well. The mixture was incubated at 4° C. for 30 minutes. The 96-well cell culture plate was centrifuged at 1200 rpm for 5 minutes and washed twice with PBS. Subsequently, 50 μl of anti-mouse IgG Fc-FITC at 1:100 dilution was added to each well, and was incubated at 4° C. for 30 minutes. Subsequently, the 96-well cell culture plate was centrifuged at 1200 rpm for 5 minutes, and washed once with PBS. Then 200 μl of PBS was added to each well, and flow cytometry analysis was performed.

[2] = target: T2, Rhesus monkey PD-L1 on CHO cells (rhesus monkey, UniProt Q9NZQ7 19-290 (human entry)); test: flow cytometry, CHO-rmPD-L1 cells, Anti-mouse-IgGFc-FITC, antibody 1 µg/ml
T2 construct: Expressed in CHO cells for the cross-reactivity test; also called rmPD-L1; NP_001077358.1
T2 chain: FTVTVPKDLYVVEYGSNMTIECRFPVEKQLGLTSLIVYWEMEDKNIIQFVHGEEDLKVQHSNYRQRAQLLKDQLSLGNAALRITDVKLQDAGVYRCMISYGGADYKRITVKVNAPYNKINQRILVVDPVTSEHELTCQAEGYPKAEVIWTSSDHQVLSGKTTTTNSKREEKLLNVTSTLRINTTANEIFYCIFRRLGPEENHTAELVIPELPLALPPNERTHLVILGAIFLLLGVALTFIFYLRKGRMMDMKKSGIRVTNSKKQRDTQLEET
From the text: as §1, §2

[3] = target: T3, human-mouse chimeric PD-L1 on CHO cells (human-mouse chimeric, UniProt Q9EP73 19-290 (mouse entry)); test: flow cytometry, CHO-chiPD-L1 cells, Anti-mouse-IgGFc-FITC, antibody 1 µg/ml
T3 construct: expressed in CHO cells; also called chiPD-L1
T3 chain: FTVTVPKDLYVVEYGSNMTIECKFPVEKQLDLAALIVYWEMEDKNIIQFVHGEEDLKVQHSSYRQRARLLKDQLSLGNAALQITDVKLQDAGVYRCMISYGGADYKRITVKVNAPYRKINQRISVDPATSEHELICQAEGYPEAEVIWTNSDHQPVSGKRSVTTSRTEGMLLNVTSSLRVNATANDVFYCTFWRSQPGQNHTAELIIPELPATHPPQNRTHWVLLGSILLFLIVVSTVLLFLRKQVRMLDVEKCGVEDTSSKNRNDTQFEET
From the text: as §1, §2

Mouse PD-L1 on CHO cells [4] = target: T1, Mouse PD-L1 on CHO cells; test: flow cytometry on CHO cells expressing mPD-L1
From the text: as §1, §2

Mouse PD-L1 on CHO cells [5] = target: T1, Mouse PD-L1 on CHO cells; test: flow cytometry, CHO-mPD-L1 cells, Anti-human IgG Fc-FITC, antibody 1 µg/ml
Target sequence in this assay (Q9EP73 19-290 limits assumed): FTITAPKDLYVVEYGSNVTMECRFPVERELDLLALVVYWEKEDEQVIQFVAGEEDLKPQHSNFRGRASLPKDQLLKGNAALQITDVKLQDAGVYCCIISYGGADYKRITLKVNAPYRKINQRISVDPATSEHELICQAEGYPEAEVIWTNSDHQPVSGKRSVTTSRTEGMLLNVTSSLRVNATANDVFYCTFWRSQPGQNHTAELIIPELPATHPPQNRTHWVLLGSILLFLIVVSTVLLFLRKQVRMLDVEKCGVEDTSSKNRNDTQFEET

B1: 07-6A11 (antibody, V domains shown)
VH: DVQLVESGGGLVQPGGSRKLSCAASGFTFSSFGMHWVRQAPEKGLEWVAYISSGSNTIYYADTVKGRFTISRDNPKNTLFLQMTSLRSEDTAIYYCTRNGYDGWYAMDYWGQGTSVTVSS
VL: QIVLTQSPAIMSASPGEKVTMTCSASSSVSYIHWFQQKSGTSPKRWIYDTSKLASGVPARFSGRGSGTSYSLTISSMEAEDAATYYCQQWSTNPFTFGSGTKLEIK
notes: Murine monoclonal antibody from hybridoma, purified from ascites
Mouse PD-L1 on CHO cells [1]
  % cells in the FITC-positive gate: 4.56%
[2]
  % cells in the FITC-positive gate: 51.4%
[3]
  % cells in the FITC-positive gate: 77.4%
Mouse PD-L1 on CHO cells [4]
  binding result: no binding (tested: 1 µg/ml)

B2: 17-7E4 (antibody, V domains shown)
VH: QVQLQQSGAELVRPGVSVKISCKGSGFKFTDYAIHWVKQSHAKSLEWIGVISIYYGEASYNQKFKDKATLTVDTSSSTAYMELARLTSEDSAIYYCAREDYYGSSSYFDYWGQGTALTVSS
VL: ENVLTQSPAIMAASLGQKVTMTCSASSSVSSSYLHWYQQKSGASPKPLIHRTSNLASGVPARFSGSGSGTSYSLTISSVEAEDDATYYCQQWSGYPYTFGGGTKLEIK
notes: as for B1
Mouse PD-L1 on CHO cells [1]
  % cells in the FITC-positive gate: 1.1%
[2]
  % cells in the FITC-positive gate: 64.9%
[3]
  % cells in the FITC-positive gate: 67.8%
Mouse PD-L1 on CHO cells [4]
  binding result: no binding (tested: 1 µg/ml)

B3: 08-3F2 (antibody, V domains shown)
VH: DVQLQESGPDLVKPSQTLSLTCTVTGYSITSGYNWHWIRQFPGNKLEWMGYIHHSSITNYNPSLKSRISITRDTSKNQFFLQLSSVTTEDTATFYCAREGYDYDWFAYWGQGTLVTVSA
VL: DIVLAQSPATLSVTPGDSVSLSCRASQSISNNLHWYQQKSHESPRLLIKYASQSISGIPSRFSGSGSGTDFTLSINSVETEDFGMYFCQQSKSWPFTFGSGTRLEIK
notes: as for B1
Mouse PD-L1 on CHO cells [1]
  % cells in the FITC-positive gate: 7.37%
[2]
  % cells in the FITC-positive gate: 60.9%
[3]
  % cells in the FITC-positive gate: 88.3%
Mouse PD-L1 on CHO cells [4]
  binding result: no binding (tested: 1 µg/ml)

B4: 23-4A8-mHvKv-IgG1 (antibody, V domains shown)
VH: EVQLQESGPSLVKPSQTLSLTCSVTGDSITSGYWNWIRKFPGNKLEYMGYISYTGSTYYNPSLKSRFSITRDTSKNQYFLQLNSVTTEDTATYYCASYEGWLLPFAYWGQGTLVTVSA
VL: DIVMSQSPSSLAVSVGEKVPLSCKSSQSLLYSSNQKSSLAWYQQKPGQSPKLLIYWASTRESGVPDRFTGSGSGTDFTLTISSVKAEDLAVYYCQQYYGYPFTFGSGTKLEIK
Mouse PD-L1 on CHO cells [5]
  % cells in the FITC-positive gate: 3.07%
Mouse PD-L1 on CHO cells [4]
  binding result: no binding (tested: 1 µg/ml)
